Measurements published in US20150307627A1 (BAC IP B V, published 2015).

Assays:
Human IgG [1] = molecular target: T1, Human IgG; assay: method not given
T1 construct: also called HuIgG; human IgG-Fc domains
Protocol: (§1) Binding affinity constants of anti IgG-Fc VHH fragments were determined using surface plasmon resonance analysis (SPR) on a BiaCore 3000. For this purpose, purified VHH fragments were immobilised onto the surface of a CM5 sensor chip and subsequently incubated with different concentrations of purified IgG antibodies in HBS-EP buffer. Binding was allowed for 3 minutes at 30 μl/min followed by a dissociation step of 15 minutes at 30 μl/min Binding curves were fitted according to a 1:1 Langmuir binding model using Biacore software.

Human IgG [2] = molecular target: T1, Human IgG; assay: SPR, VHH immobilised, 1:1 Langmuir fit
Protocol: as §1

HuIgG1 [3] = molecular target: T2, HuIgG1 (human, UniProt P01857-1 1-330 = IgG part); assay: SPR, VHH immobilised, 1:1 Langmuir fit
T2 construct: Purified human IgG of subclass 1; also called Human-IgG1
Protocol: as §1

HuIgG2 [4] = molecular target: T3, HuIgG2 (human, UniProt P01859-1 1-326 = IgG part); assay: SPR, VHH immobilised, 1:1 Langmuir fit
T3 construct: Purified human IgG of subclass 2; also called Human-IgG2
Protocol: as §1

HuIgG3 [5] = molecular target: T4, HuIgG3 (human, UniProt P01860-1 1-377); assay: SPR, VHH immobilised, 1:1 Langmuir fit
T4 construct: Purified human IgG of subclass 3; also called Human-IgG3
Protocol: as §1

HuIgG4 [6] = molecular target: T5, HuIgG4 (human, UniProt P01861-1 1-327 = IgG part); assay: SPR, VHH immobilised, 1:1 Langmuir fit
T5 construct: Purified human IgG of subclass 4; also called Human-IgG4
Protocol: as §1

Human IgG [7] = molecular target: T1, Human IgG; assay: affinity chromatography, VHH on NHS-Sepharose, 150 cm/h
Protocol: The dynamic binding capacity (DBC) of the IgG-Fc domain binding VHH fragments immobilized onto NHS sepharose was tested. 10 ml of 1.0 mg/ml human IgG in PBS pH 7.4 was loaded on a 400 μl column with a linear flow of 150 cm/h. After the washing with 10 column volumes PBS pH 7.4, the column was eluted with 0.1 M glycine buffer pH 3.0. Based on integration of the OD280 signal of the flow through and elution peak, the dynamic binding capacity of the column was calculated (Table 11).

Human IgG [8] = molecular target: T1, Human IgG; assay: SPR, VHH immobilised, IgG 50 µg/ml
Protocol: (§2) Broad binding reactivity of VHH fragment IgG-Fc-16 was determined using surface plasmon resonance analysis (SPR) on a BiaCore 3000. For this purpose, purified VHH fragment IgG-Fc-16 was immobilised onto the surface of a CM5 sensor chip and subsequently incubated with purified IgG antibodies (50 μg/ml) from different species in HBS-EP buffer. Binding was allowed for 1 minute at 5 μl/min followed by a dissociation step of 2.5 minutes at 5 μl/min. Binding signals (Resonance Units) were compared to background signals measured with HBS-EP buffer only. For comparison, the relative reactivity of Protein A and G towards different IgG species is also given.

Human IgG, Fc fragment = assay: SPR, VHH immobilised, IgG 50 µg/ml
Protocol: as §2

Human IgG, Fab fragment = assay: SPR, VHH immobilised, IgG 50 µg/ml
Protocol: as §2

HuIgG1 [9] = molecular target: T2, HuIgG1; assay: SPR, VHH immobilised, IgG 50 µg/ml
Protocol: as §2

HuIgG2 [10] = molecular target: T3, HuIgG2; assay: SPR, VHH immobilised, IgG 50 µg/ml
Protocol: as §2

HuIgG3 [11] = molecular target: T4, HuIgG3; assay: SPR, VHH immobilised, IgG 50 µg/ml
Protocol: as §2

HuIgG4 [12] = molecular target: T5, HuIgG4; assay: SPR, VHH immobilised, IgG 50 µg/ml
Protocol: as §2

Rat IgG = molecular target: T6, Rat IgG; assay: SPR, VHH immobilised, IgG 50 µg/ml
T6 construct: also called IgG-Fc from rat
Protocol: as §2

Rat IgG1a = assay: SPR, VHH immobilised, IgG 50 µg/ml
Protocol: as §2

Rat IgG2a = Rat IgG2a (rat, UniProt P20760 1-322); assay: SPR, VHH immobilised, IgG 50 µg/ml
Protocol: as §2

Rat IgG2b = Rat IgG2b (rat, UniProt P20761 1-333); assay: SPR, VHH immobilised, IgG 50 µg/ml
Protocol: as §2

Rat IgG2c = Rat IgG2c (rat, UniProt P20762 1-329); assay: SPR, VHH immobilised, IgG 50 µg/ml
Protocol: as §2

Rabbit IgG = assay: SPR, VHH immobilised, IgG 50 µg/ml
Protocol: as §2

Sheep IgG = molecular target: T7, Sheep IgG; assay: SPR, VHH immobilised, IgG 50 µg/ml
T7 construct: also called IgG-Fc from sheep
Protocol: as §2

Bovine IgG [13] = molecular target: T8, Bovine IgG; assay: SPR, VHH immobilised, IgG 50 µg/ml
T8 construct: also called IgG-Fc from bovine
Protocol: as §2

Bovine IgG, Fc fragment = assay: SPR, VHH immobilised, IgG 50 µg/ml
Protocol: as §2

Bovine IgG, Fab fragment = assay: SPR, VHH immobilised, IgG 50 µg/ml
Protocol: as §2

Mouse IgG [14] = molecular target: T9, Mouse IgG; assay: SPR, VHH immobilised, IgG 50 µg/ml
T9 construct: also called IgG-Fc from mouse
Protocol: as §2

Mouse IgG 1 = Mouse IgG 1 (mouse, UniProt P01868 1-324 = IgG part); assay: SPR, VHH immobilised, IgG 50 µg/ml
Protocol: as §2

Mouse IgG2a = Mouse IgG2a (mouse, UniProt P01863 1-330 = IgG part); assay: SPR, VHH immobilised, IgG 50 µg/ml
Protocol: as §2

Dog IgG = molecular target: T10, Dog IgG; assay: SPR, VHH immobilised, IgG 50 µg/ml
T10 construct: also called IgG-Fc from dog
Protocol: as §2

Goat IgG = molecular target: T11, Goat IgG; assay: SPR, VHH immobilised, IgG 50 µg/ml
T11 construct: also called IgG-Fc from goat
Protocol: as §2

Syrian Hamster IgG = molecular target: T12, Syrian Hamster IgG; assay: SPR, VHH immobilised, IgG 50 µg/ml
T12 construct: also called IgG-Fc from syrian hamster
Protocol: as §2

Swine IgG = assay: SPR, VHH immobilised, IgG 50 µg/ml
Protocol: as §2

Cat IgG = molecular target: T13, Cat IgG; assay: SPR, VHH immobilised, IgG 50 µg/ml
T13 construct: also called IgG-Fc from cat
Protocol: as §2

Donkey IgG = assay: SPR, VHH immobilised, IgG 50 µg/ml
Protocol: as §2

Guinea pig IgG = molecular target: T14, Guinea pig IgG; assay: SPR, VHH immobilised, IgG 50 µg/ml
T14 construct: also called Guinea IgG; IgG-Fc from guinea pig
Protocol: as §2

Foetal Calf IgG = assay: SPR, VHH immobilised, IgG 50 µg/ml
Protocol: as §2

Newborn Calf IgG = assay: SPR, VHH immobilised, IgG 50 µg/ml
Protocol: as §2

Horse IgG = assay: SPR, VHH immobilised, IgG 50 µg/ml
Protocol: as §2

Bovine IgG [15] = molecular target: T8, Bovine IgG; assay: SPR, VHH immobilised, 1:1 Langmuir fit
Protocol: as §1

Mouse IgG [16] = molecular target: T9, Mouse IgG; assay: SPR, VHH immobilised, 1:1 Langmuir fit
Protocol: as §1

T3 sequence (P01859 other isoform, or with tags, fused parts or gaps): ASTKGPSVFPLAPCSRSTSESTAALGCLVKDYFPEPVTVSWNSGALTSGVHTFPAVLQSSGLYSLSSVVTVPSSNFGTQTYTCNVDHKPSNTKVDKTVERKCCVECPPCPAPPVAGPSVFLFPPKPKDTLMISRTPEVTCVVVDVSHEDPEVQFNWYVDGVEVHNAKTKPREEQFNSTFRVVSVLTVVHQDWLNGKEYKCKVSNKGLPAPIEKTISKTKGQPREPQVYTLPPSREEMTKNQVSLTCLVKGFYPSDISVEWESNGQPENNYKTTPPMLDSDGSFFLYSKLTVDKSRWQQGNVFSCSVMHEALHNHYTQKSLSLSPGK
T4 sequence (P01860 other isoform, or with tags, fused parts or gaps): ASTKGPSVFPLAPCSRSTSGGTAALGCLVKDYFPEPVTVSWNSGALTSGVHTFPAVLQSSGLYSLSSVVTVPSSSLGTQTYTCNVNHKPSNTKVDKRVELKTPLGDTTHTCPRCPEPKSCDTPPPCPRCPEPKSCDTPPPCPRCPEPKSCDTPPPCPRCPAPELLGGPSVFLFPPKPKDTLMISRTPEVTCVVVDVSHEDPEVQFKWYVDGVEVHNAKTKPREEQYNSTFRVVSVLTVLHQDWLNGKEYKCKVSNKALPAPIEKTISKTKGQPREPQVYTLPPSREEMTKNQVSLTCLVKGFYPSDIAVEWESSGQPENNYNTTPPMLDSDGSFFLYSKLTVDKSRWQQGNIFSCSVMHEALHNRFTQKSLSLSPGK
T5 sequence (P01861 other isoform, or with tags, fused parts or gaps): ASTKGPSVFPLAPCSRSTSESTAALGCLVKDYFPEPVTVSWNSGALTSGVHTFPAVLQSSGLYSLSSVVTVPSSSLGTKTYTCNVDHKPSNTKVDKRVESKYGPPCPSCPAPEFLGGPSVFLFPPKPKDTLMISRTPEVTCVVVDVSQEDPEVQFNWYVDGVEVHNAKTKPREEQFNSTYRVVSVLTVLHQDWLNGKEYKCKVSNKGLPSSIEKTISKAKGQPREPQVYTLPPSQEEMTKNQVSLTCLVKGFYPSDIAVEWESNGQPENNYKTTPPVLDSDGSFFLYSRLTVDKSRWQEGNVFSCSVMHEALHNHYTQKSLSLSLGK
T2 sequence (P01857 other isoform, or with tags, fused parts or gaps): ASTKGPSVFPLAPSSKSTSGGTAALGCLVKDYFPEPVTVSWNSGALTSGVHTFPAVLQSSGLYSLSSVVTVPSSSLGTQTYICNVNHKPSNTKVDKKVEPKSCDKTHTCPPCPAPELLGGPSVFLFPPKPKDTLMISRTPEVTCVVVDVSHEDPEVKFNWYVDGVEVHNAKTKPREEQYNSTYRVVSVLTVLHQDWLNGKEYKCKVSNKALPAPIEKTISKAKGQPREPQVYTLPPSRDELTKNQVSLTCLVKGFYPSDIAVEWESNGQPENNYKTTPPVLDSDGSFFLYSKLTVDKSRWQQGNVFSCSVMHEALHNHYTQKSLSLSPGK
Chain of Rat IgG2b (P20761 whole entry): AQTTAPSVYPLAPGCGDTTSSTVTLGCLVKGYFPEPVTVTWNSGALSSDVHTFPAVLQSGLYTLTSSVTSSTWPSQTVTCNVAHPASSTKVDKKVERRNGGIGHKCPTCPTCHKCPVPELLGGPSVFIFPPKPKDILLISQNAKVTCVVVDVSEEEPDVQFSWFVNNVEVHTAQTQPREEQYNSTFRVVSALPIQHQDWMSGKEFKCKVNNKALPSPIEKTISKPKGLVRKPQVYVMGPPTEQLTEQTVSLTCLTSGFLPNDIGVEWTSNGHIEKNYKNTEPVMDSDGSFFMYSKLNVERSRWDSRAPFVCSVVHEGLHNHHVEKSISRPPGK
Chain of Rat IgG2c (P20762 whole entry): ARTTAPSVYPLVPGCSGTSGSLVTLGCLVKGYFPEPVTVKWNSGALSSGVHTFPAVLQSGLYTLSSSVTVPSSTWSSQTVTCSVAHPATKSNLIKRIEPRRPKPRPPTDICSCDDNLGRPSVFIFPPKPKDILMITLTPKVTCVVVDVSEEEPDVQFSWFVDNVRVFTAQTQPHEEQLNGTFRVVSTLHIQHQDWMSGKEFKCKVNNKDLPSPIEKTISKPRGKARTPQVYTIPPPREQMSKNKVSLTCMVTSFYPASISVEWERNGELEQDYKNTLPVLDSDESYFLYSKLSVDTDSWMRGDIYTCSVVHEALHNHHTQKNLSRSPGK
Chain of Mouse IgG2a (P01863 whole entry): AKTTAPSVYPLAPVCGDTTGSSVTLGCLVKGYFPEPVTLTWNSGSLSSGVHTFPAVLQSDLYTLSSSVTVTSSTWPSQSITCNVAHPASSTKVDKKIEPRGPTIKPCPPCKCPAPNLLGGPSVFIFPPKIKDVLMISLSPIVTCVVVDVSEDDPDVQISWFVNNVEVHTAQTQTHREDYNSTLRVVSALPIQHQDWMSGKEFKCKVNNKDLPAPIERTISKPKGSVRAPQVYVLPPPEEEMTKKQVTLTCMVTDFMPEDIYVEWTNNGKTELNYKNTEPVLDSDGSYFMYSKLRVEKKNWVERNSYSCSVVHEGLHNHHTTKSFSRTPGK
Chain of Rat IgG2a (P20760 whole entry): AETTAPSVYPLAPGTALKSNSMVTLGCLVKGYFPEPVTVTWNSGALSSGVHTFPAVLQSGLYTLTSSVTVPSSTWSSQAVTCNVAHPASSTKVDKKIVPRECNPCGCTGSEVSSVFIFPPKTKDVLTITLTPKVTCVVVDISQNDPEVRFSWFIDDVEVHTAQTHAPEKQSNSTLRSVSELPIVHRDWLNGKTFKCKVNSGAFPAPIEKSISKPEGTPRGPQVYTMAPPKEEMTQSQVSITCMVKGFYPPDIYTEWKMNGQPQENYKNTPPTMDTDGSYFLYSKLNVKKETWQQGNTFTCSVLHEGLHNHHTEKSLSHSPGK

B1: IgG-Fc-10 (VHH)
VHH: QVQLQESGGGLVQAGDSLRISCRASGLTVNDLYMGWFRQAPGKEREFVGRVTPGDNTDYTYYVDSVKGRFTISRDSAKNTVYLQMNSLKLEDTAVYLCAGRRFGSSEWDYWGQGTQVTVSS
Ka (Human IgG [1]): ≥ 4e+09 M⁻¹
Ka (Human IgG [2]): 3.07e+08 M⁻¹
Kd (Human IgG [2]): 3.25 nM
koff (Human IgG [2]): 0.00129 s⁻¹
kon (Human IgG [2]): 396000 M⁻¹ s⁻¹
Ka (HuIgG1 [3]): 3.81e+08 M⁻¹
Kd (HuIgG1 [3]): 2.62 nM
koff (HuIgG1 [3]): 0.000654 s⁻¹
kon (HuIgG1 [3]): 249000 M⁻¹ s⁻¹
Ka (HuIgG2 [4]): 1.37e+08 M⁻¹
Kd (HuIgG2 [4]): 7.29 nM
koff (HuIgG2 [4]): 0.000889 s⁻¹
kon (HuIgG2 [4]): 122000 M⁻¹ s⁻¹
Ka (HuIgG3 [5]): 1.11e+08 M⁻¹
Kd (HuIgG3 [5]): 8.99 nM
koff (HuIgG3 [5]): 0.0014 s⁻¹
kon (HuIgG3 [5]): 156000 M⁻¹ s⁻¹
Ka (HuIgG4 [6]): 8.16e+07 M⁻¹
Kd (HuIgG4 [6]): 12.3 nM
koff (HuIgG4 [6]): 0.00123 s⁻¹
kon (HuIgG4 [6]): 100000 M⁻¹ s⁻¹
Dynamic binding capacity (Human IgG [7]): 16.7 mg human IgG/ml matrix

B2: IgG-Fc-01 (VHH)
VHH: QVQLQESGGGLVQPGGSLRLSCAASGGTSIRIGSINALAWYRQALGNQRELVAAVTEGGSTNYADFVKGRFTISRDNAQNMMYLQMNSLKPEDTAVYYCNADKVLYSRGGYYSVANDLWGQGTQVTVSS
notes: also called IgG-Fc-1
Ka (Human IgG [2]): 4.67e+08 M⁻¹
Kd (Human IgG [2]): 2.14 nM
koff (Human IgG [2]): 0.000176 s⁻¹
kon (Human IgG [2]): 82400 M⁻¹ s⁻¹
Ka (HuIgG1 [3]): 1.74e+09 M⁻¹
Kd (HuIgG1 [3]): 0.575 nM
koff (HuIgG1 [3]): 0.000208 s⁻¹
kon (HuIgG1 [3]): 361000 M⁻¹ s⁻¹
Ka (HuIgG2 [4]): 5.76e+08 M⁻¹
Kd (HuIgG2 [4]): 1.73 nM
koff (HuIgG2 [4]): 0.000212 s⁻¹
kon (HuIgG2 [4]): 122000 M⁻¹ s⁻¹
Ka (HuIgG3 [5]): 2.09e+07 M⁻¹
Kd (HuIgG3 [5]): 47.8 nM
koff (HuIgG3 [5]): 0.000272 s⁻¹
kon (HuIgG3 [5]): 5690 M⁻¹ s⁻¹
Ka (HuIgG4 [6]): 3.32e+09 M⁻¹
Kd (HuIgG4 [6]): 0.302 nM
koff (HuIgG4 [6]): 5.91e-05 s⁻¹
kon (HuIgG4 [6]): 196000 M⁻¹ s⁻¹
Dynamic binding capacity (Human IgG [7]): 18.2 mg human IgG/ml matrix

B3: IgG-Fc-16 (VHH)
VHH: QVQLQESGGGLVQAGGSLRLSCAASGRAVGNYIIGWFRQAPGKEREFVATTTRDGGSTFYADSVKGRFTISRDNAKNTVNLQMNSLEPEDTAVYYCAAKSWSVPLRPTSADFDSWGQGTQVTVSS
notes: also called VHH fragment IgG-Fc-16
Binding signal (RU) (Human IgG [8]): 1110 RU
Binding signal (RU) (Human IgG, Fc fragment): 807 RU
Binding signal (RU) (Human IgG, Fab fragment): -2.8 RU
Binding signal (RU) (HuIgG1 [9]): 1570 RU
Binding signal (RU) (HuIgG2 [10]): 795 RU
Binding signal (RU) (HuIgG3 [11]): 499 RU
Binding signal (RU) (HuIgG4 [12]): 710 RU
Binding signal (RU) (Rat IgG): 108 RU
Binding signal (RU) (Rat IgG1a): 431 RU
Binding signal (RU) (Rat IgG2a): 444 RU
Binding signal (RU) (Rat IgG2b): 512 RU
Binding signal (RU) (Rat IgG2c): 2130 RU
Binding signal (RU) (Rabbit IgG): 800 RU
Binding signal (RU) (Sheep IgG): 846 RU
Binding signal (RU) (Bovine IgG [13]): 309 RU
Binding signal (RU) (Bovine IgG, Fc fragment): 172 RU
Binding signal (RU) (Bovine IgG, Fab fragment): -1.7 RU
Binding signal (RU) (Mouse IgG [14]): 468 RU
Binding signal (RU) (Mouse IgG 1): 1610 RU
Binding signal (RU) (Mouse IgG2a): 427 RU
Binding signal (RU) (Dog IgG): 490 RU
Binding signal (RU) (Goat IgG): 257 RU
Binding signal (RU) (Syrian Hamster IgG): 670 RU
Binding signal (RU) (Swine IgG): 811 RU
Binding signal (RU) (Cat IgG): 410 RU
Binding signal (RU) (Donkey IgG): 638 RU
Binding signal (RU) (Guinea pig IgG): 577 RU
Binding signal (RU) (Foetal Calf IgG): 260 RU
Binding signal (RU) (Newborn Calf IgG): 239 RU
Binding signal (RU) (Horse IgG): 430 RU
Ka (Human IgG [2]): 7.65e+07 M⁻¹
Kd (Human IgG [2]): 13.1 nM
koff (Human IgG [2]): 0.000462 s⁻¹
kon (Human IgG [2]): 35300 M⁻¹ s⁻¹
Ka (HuIgG1 [3]): 1.47e+08 M⁻¹
Kd (HuIgG1 [3]): 6.81 nM
koff (HuIgG1 [3]): 0.000211 s⁻¹
kon (HuIgG1 [3]): 31000 M⁻¹ s⁻¹
Ka (HuIgG2 [4]): 6.17e+07 M⁻¹
Kd (HuIgG2 [4]): 16.2 nM
koff (HuIgG2 [4]): 0.000355 s⁻¹
kon (HuIgG2 [4]): 21900 M⁻¹ s⁻¹
Ka (HuIgG3 [5]): 4.69e+07 M⁻¹
Kd (HuIgG3 [5]): 21.3 nM
koff (HuIgG3 [5]): 0.000849 s⁻¹
kon (HuIgG3 [5]): 39800 M⁻¹ s⁻¹
Ka (HuIgG4 [6]): 5.89e+08 M⁻¹
Kd (HuIgG4 [6]): 1.7 nM
koff (HuIgG4 [6]): 0.000107 s⁻¹
kon (HuIgG4 [6]): 62900 M⁻¹ s⁻¹
Ka (Bovine IgG [15]): 3.59e+08 M⁻¹
Kd (Bovine IgG [15]): 2.79 nM
koff (Bovine IgG [15]): 0.000386 s⁻¹
kon (Bovine IgG [15]): 138000 M⁻¹ s⁻¹
Ka (Mouse IgG [16]): 1.19e+08 M⁻¹
Kd (Mouse IgG [16]): 8.41 nM
koff (Mouse IgG [16]): 0.000198 s⁻¹
kon (Mouse IgG [16]): 23500 M⁻¹ s⁻¹
Dynamic binding capacity (Human IgG [7]): 11.5 mg human IgG/ml matrix
